No end group written: not given here.

The labels stand for the following.
T1: MdnC (Microcystis aeruginosa MRC, UniProt B2G3D0)
T1 sequence (B2G3D0 1-324): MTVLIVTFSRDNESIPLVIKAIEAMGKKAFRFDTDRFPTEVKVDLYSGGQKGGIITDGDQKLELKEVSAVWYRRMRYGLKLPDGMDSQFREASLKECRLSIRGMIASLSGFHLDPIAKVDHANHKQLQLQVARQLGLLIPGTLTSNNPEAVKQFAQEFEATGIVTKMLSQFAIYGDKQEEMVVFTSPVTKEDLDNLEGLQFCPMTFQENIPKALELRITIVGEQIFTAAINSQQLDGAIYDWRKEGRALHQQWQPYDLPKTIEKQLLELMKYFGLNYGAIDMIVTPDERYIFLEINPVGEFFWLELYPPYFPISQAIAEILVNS

T2: MdnB (Microcystis aeruginosa MRC, UniProt B2G3C9)
T2 sequence (B2G3C9 1-326): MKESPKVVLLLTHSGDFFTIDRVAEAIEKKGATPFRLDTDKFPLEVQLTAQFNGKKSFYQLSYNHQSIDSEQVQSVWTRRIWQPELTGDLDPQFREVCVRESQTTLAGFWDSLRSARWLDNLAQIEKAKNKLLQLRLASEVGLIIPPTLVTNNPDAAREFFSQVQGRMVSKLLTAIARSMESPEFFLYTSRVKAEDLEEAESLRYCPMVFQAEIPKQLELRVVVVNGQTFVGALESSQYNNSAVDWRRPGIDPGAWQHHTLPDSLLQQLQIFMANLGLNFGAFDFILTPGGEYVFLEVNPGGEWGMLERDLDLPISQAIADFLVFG

B1: Full-length MdnA (residues 1-49), microviridin J precursor peptide (peptide)
peptide: MAYPNDQQGKALPFFARFLSVSKEESSIKSPSPDHEISTRKYPSDWEEW
B2: MdnAΔ2, dicyclic intermediate of MdnA (peptide)
peptide: B1 peptide
modifications: two macrolactone rings, Thr39/Asp45 and Ser43/Glu47 (installed by MdnC)
B3: MdnB (ATP-grasp macrocyclase, microviridin J pathway, Microcystis aeruginosa MRC) (enzyme)
chain: T2 sequence (B2G3C9 1-326)
B4: MdnA[9-22], minimal peptide containing the conserved region of the leader peptide (peptide)
peptide: GKALPFFARFLSVS
modifications: not fully specified
B5: MdnA[1-35], leader peptide-only analog of MdnA (peptide)
peptide: MAYPNDQQGKALPFFARFLSVSKEESSIKSPSPDH
modifications: not fully specified
B6: MdnA[1-35], leader peptide-only analog of MdnA (peptide)
peptide: B5 peptide

One data set addresses T1, MdnC. It is filed as binding. The settings on record: ITC.
In the next data set the target is T2, MdnB. The data set is described as follows: ITC binding of MdnA peptides to MdnB.
In data set [1] the target is MdnC (ATP-grasp macrocyclase, microviridin J pathway, Microcystis aeruginosa MRC) (Microcystis aeruginosa MRC). The data set is described as follows: ITC. Background: ITC needs no label: the signal is the heat of the interaction.
Data set [2] shares this target. Put plainly: SEC + native gel or EMSA. On the technique in general: A gel shift assay detects complexes by their altered migration in electrophoresis.
For data set [3], the target named is MdnC (Microcystis aeruginosa MRC). Put plainly: crystal structure.
For data set [4] the target is unchanged. Put plainly: SEC.
The test system of the next data set is Daphnia. The settings on record: through inhibition of serine-type proteases; cited from earlier work.
The target of data set [5] is B3. Put plainly: ITC.
The data set “SEC + native gel or EMSA” concerns the molecule itself. Put plainly: SEC + native gel or EMSA.

With `Nc1ncnc2c1ncn2[C@@H]1O[C@H](COP(=O)(O)OP(=O)(O)OP(=O)(O)O)[C@@H](O)[C@H]1O` [ATP], the “Binding to MdnC, in words” value at MdnC was “neither MdnC nor MdnB show an observable heat change”. Moreover, at MdnB, the “Binding to MdnB, in words” value is “neither MdnC nor MdnB show an observable heat change”. One may read the Kd as the free concentration of one partner at which half of the binding sites on the other are occupied at equilibrium, for simple one-to-one binding. “Full-length MdnA (residues 1-49), microviridin J precursor peptide (from UniProt B2G3C8 1-49)”: the Kd in data set [1] amounted to 0.112 µM. Broadly, the stoichiometry N is a count of units in the complex or per binding partner. “MdnC (ATP-grasp macrocyclase, microviridin J pathway, Microcystis aeruginosa MRC) (enzyme)”: the stoichiometry N in data set [2] is 2. Turning to MdnC (enzyme), the stoichiometry N in [3] and in data set [4] was 2 throughout. For the molecule microviridin J, in the data set on Daphnia, the “Effect on Daphnia” value is “lethal molting disruption”. B1 displayed a Kd in [5] of 4.8 ± 1 µM. Same read-out and setting: with B2 the figure was 6.4 ± 2 µM. As for B3, the “stoichiometry N” value in the data set “SEC + native gel or EMSA” worked out at 2. In turn, B4 yielded a dissociation constant Kd in data set [1] of 0.308 µM. Same read-out and setting: with B5 the figure was 0.146 µM. In the case of B6, the Kd in data set [5] amounted to 2.8 ± 0.8 µM.
